This assay addresses enhanced GFP (EGFP).

In the case of “E. coli dihydrofolate reductase (eDHFR) (from UniProt P0ABQ4 1-159) (enzyme)”, the t1/2 of the normalized PCC increase between mCherry-eDHFR and EGFP-mito over time in live HeLa cells with 24 uM cRGT was found to be 7.26 min.

Source of the values: paper PMC10039045.
